# Reference: publication PMC11961569
# Molecular target: EfpA^EM (BRIL-P171R EfpA, Mycobacterium tuberculosis efflux protein A) (not stated | Mycobacterium tuberculosis) (UniProt P9WJY4)
# Test: cryo-EM structure; EfpA-EM mixed with anti-BRIL Fab and anti-Fab elbow Nb (1:1.5:2), separated on Superose 6 in 50 mM Tris-Cl pH 7.5, 300 mM NaCl, 0.02% GDN; apo sample gave antiparallel (dominant) and parallel dimers; samples with BRD-8000.3 or BRD-9327 gave antiparallel dimers
substance,measurement,value
"EfpA^EM (BRIL-P171R EfpA, Mycobacterium tuberculosis efflux protein A) (from UniProt P9WJY4 49-530)",stoichiometry N,2
